Results reported in US20220251222A1 (Johns Hopkins, published 2022).

Legend:
[1] = target: T1, IL-8RB expressed on lentivirally transduced HEK 293T cells (UniProt P25025 1-360, limits assumed); test: flow cytometry binding titration on IL-6R-/IL-8R+ HEK 293T cells, detected with FITC anti-human IgG1
T1 construct: whole, on cells; also called IL-8R^+ cells; IL-6Rα^-/IL-8R^+ HEK 293T cells
T1 sequence (looked up): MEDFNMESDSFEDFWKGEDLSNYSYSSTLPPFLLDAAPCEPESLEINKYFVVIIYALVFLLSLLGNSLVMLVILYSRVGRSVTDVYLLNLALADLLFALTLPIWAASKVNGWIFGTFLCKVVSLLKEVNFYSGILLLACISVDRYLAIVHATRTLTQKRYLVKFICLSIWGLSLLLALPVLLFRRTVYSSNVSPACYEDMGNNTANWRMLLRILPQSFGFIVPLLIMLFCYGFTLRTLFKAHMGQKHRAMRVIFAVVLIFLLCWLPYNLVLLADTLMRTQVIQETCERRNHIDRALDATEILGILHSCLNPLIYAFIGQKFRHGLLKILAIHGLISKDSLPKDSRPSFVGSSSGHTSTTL
Description: (§1) HEK 293T cells were cultured in Dulbecco's modified Eagle's medium (DMEM, Mediatech) supplemented with 10% (Hyclone), 2 mM L-glutamine and 100 U/mL penicillin-streptomycin (Gibco). For surface binding assays, IL-6Rα⁺/IL-8R⁻, IL-6Rα⁻/IL-8R⁺, IL-6Rα⁺/IL-8R⁺, and […] HEK 293T cells were trypsinized for detachment, resuspended in PBSA, and then aliquoted into 96-well plates (1×10⁵ cells per well). Cells were incubated with titrations of various monoclonal or bispecific antibodies for 2 hr at 4° C. with rotation. Cells were then washed and incubated with a 1:50 dilution of fluorescein isothiocyanate (FITC)-conjugated anti-human IgG1 antibody (Sigma-Aldrich, Clone 8c/6-39) in PBSA for 15 min at 4° C. After a final wash, cells were resuspended in PBSA and analyzed on a CytoFLEX flow cytometer (Beckman Coulter). Binding isotherms were fitted to a first-order logistic model and KD values were calculated using GraphPad Prism data analysis software. Mean fluorescence intensity (MFI) of unstimulated cells was subtracted. […]
(§2) To determine whether engineered bispecific binding agents BS1 and BS2 specifically engage target antigens in a physiologically relevant context, antibody binding to IL-6Rα⁺/IL-8R⁻, IL-6Rα⁻/IL-8R⁺, IL-6Rα⁺/IL-8R⁺, and IL-6Rα⁻/IL-8R⁻ lentivirally transduced HEK 293T cells was measured via flow cytometry. […]

[2] = target: T2, human IL-6Rα extracellular domain (ECD), residues 89-303 of the mature protein, with C-terminal biotin … (human, UniProt P08887 108-322, biotinylated with BirA ligase on the biotin acceptor peptide); test: equilibrium bio-layer interferometry titration, biotinylated human IL-6Rα ECD immobilized on streptavidin tips
T2 construct: range 89-303; The range 89-303 counts on the mature protein, not on the precursor; Any linkers between the ECD, BAP and His tag are not described; also called IL-6Rα ECD; recombinant IL-6Rα
T2 sequence: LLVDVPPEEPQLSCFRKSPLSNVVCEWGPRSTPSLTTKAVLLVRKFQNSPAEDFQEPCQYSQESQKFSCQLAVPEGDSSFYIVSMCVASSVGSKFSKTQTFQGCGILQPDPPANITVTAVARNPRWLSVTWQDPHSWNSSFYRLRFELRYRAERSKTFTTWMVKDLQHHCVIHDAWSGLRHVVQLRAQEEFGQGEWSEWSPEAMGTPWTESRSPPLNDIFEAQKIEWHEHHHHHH
Description: Biotinylated human IL-6Rα ECD was immobilized to streptavidin-coated tips for analysis on an Octet® Red96 BLI instrument (ForteBio). Less than 5 signal units (nm) of receptor was immobilized to minimize mass transfer effects. Tips were exposed to serial dilutions of the anti-IL-6R antibody tocilizumab, the anti-IL-8R antibody 10H2, BS1, or BS2 in a 96-well plate for 300 s and dissociation was measured for 600 s. Surface regeneration for all interactions was conducted using 15 s exposure to 0.1 M glycine pH 3.0. Experiments were carried out in PBSA (phosphate-buffered saline [PBS] pH 7.3 plus 0.1% bovine serum albumin [BSA, Thermo]) at 25° C. Data was visualized and processed using the Octet® Data Analysis software version 7.1 (ForteBio). Equilibrium titration curve fitting and equilibrium dissociation constant (KD) value determination was implemented in GraphPad Prism software using a first-order logistic model. Experiments were reproduced two times with similar results.
To confirm functionality of our bispecific agents, antibodies were titrated against recombinant IL-6Rα via BLI. […] Moreover, both tocilizumab-containing engineered bispecific binding agents also bound IL-6Rα (FIG. 5).

[3] = target: T1, IL-8RB expressed on lentivirally …; test: flow cytometry titration on IL-6Rα+/IL-8R+ HEK 293T cells; IL-6Rα+/IL-8R+ 293T cells (FIG. 7C)
Description: as §1, §2

[4] = target: T3, IL-6Rα expressed on lentivirally transduced HEK 293T cells (UniProt P08887 20-468, limits assumed); test: flow cytometry binding titration on IL-6R+/IL-8R- HEK 293T cells, detected with FITC anti-human IgG1
T3 construct: whole, on cells; also called IL-6Rα^+ cells; IL-6Rα^+/IL-8R^- HEK 293T cells
T3 sequence (looked up): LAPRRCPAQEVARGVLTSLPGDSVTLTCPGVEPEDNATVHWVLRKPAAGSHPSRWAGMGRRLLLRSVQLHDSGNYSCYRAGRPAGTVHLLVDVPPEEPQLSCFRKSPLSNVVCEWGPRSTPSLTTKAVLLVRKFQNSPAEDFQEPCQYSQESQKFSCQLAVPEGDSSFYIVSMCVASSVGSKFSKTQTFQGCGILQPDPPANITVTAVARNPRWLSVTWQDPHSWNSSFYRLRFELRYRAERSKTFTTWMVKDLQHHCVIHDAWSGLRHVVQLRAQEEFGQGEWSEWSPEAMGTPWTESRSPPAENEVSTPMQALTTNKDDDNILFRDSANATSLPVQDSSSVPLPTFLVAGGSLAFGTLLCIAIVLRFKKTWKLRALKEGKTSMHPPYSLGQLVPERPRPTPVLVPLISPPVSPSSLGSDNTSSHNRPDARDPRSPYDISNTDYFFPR
Description: as §1, §2

[5] = target: T1, IL-8RB expressed on lentivirally …; test: competition with 400 nM His-tagged IL-8 on IL-6Rα-/IL-8R+ HEK 293T cells, flow cytometry
Description: IL-6Rα⁺/IL-8R⁻ and IL-6Rα⁻/IL-8R⁺ HEK 293T cells were cultured as previously described, and were trypsinized, resuspended in PBSA, and aliquoted into 96-well plates (2×10⁵ cells per well). IL-6Rα⁺/IL-8R⁻ 293T cells were incubated with titrations of various monoclonal or bispecific antibodies in the presence of saturating concentration of biotinylated IL-6 (100 nM) (Acro Biosystem, cat #: IL6-H8218-25UG) for 2 hr at 4° C. with rotation. Cells were then washed and incubated with 1:200 dilution of Alexa Fluor 647-conjugated streptavidin (Fisher Scientific, cat #: S21374) in PBSA for 15 min at 4° C. After a final wash, cells were resuspended in PBSA and analyzed on a CytoFLEX flow cytometer (Beckman Coulter). Curves were fitted to a first-order logistic model and IC₅₀ values were calculated using GraphPad Prism data analysis software. Mean fluorescence intensity (MFI) of unstimulated cells was subtracted. Similarly, IL-6Rα⁻/IL-8R⁺ 293T cells were incubated with titrations of various monoclonal or bispecific antibodies with saturating concentration of His-tagged IL-8 (400 nM) (Sino Biological, cat #: 10098-H08Y-100) for 2 hr at 4° C. with rotation. […] After a final wash, cells were resuspended in PBSA and analyzed on a CytoFLEX flow cytometer (Beckman Coulter). Curves were fitted to a first-order logistic model and IC₅₀ values were calculated using GraphPad Prism data analysis software. […]

B1: 10H2, recombinant monoclonal hIgG1 (anti-IL-8RB) (antibody, V domains shown)
VH: EVQLVETGGRLVQPKGSLKLSCAVSGITFKTNAMNWVRQAPGKGLEWVARIRTKSYNYATYYADSVKDRFTISRDDSQSILYLQMNNLKTEDTAMYHCVREGRWGQGTLVTVSA
VL: QAVVTQESALTTSPGETVTLTCRSSTGAVTTSNYANWVQEKPDHLFTGLIGGTNNRPPGVPARFSGSLIGDKAALTITGAQIEDEAIYFCALWYSNHLVFGGGTKLTVL
notes: also called anti-IL-8RB antibody
For B1, the “EC50 (read off the curve)” value [1] was ~4 nM, the binding result [2] was “no binding (tested: about 5e-7 M)” and the Kd [3] was 4.1 nM. The binding result [4] was “no binding (tested: 1e-6 M)” and the IC50 [5] was 22 nM.
